{"source": "patent US20230235040A1", "about": "(ALMIRALL S A, published 2023)", "key": {"[1]": {"biological_target": "T1, cy-IL-36α (cynomolgus monkey IL-36α, K6-F158) (cynomolgus monkey, UniProt Q9UHA7 14-158 (human entry))", "T1 chain": "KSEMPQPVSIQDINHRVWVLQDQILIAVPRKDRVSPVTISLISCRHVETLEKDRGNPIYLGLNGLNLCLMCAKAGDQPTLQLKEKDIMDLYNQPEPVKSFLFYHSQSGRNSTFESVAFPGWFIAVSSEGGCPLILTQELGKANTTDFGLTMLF", "assay": "cell-based or functional assay"}, "[2]": {"biological_target": "T2, hu-IL-36γ (human IL-36γ, N-terminally truncated active form S18-D169) (human, UniProt Q9NZH8 18-169)", "T2 sequence": "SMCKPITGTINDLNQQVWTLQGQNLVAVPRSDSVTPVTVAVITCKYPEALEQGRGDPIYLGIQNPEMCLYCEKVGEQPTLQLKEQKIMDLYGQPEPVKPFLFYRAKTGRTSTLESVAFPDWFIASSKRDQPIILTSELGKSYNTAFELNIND", "assay": "cell-based or functional assay"}, "[3]": {"biological_target": "T3, hu-IL-36α (human IL-36α, N-terminally truncated active form K6-F158) (human, UniProt Q9UHA7 6-158)", "T3 sequence": "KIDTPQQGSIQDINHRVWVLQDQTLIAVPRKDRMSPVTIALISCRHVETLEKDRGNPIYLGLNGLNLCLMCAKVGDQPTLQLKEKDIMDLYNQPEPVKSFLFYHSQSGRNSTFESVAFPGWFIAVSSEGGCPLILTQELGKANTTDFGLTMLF", "assay": "cell-based or functional assay"}, "[4]": {"biological_target": "T4, cy-IL-36γ (cynomolgus monkey IL-36γ, S18-K168) (cynomolgus monkey, UniProt Q9NZH8 18-167 (human entry))", "T4 chain": "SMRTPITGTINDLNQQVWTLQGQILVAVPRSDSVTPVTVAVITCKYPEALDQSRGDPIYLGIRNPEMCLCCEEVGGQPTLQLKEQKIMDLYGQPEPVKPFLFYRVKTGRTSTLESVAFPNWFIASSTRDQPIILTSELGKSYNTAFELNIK", "assay": "cell-based or functional assay"}, "[5]": {"biological_target": "T2, hu-IL-36γ (human IL-36γ, N-terminally …)", "assay": "cell-based or functional assay", "remark": "listed apart in the source"}, "[6]": {"biological_target": "T3, hu-IL-36α (human IL-36α, N-terminally …)", "assay": "cell-based or functional assay", "remark": "listed apart in the source"}, "[7]": {"biological_target": "T5, hu-IL-36β (human IL-36β, N-terminally truncated active form R5-E157) (human)", "T5 construct": "Purification tag cleaved off; Biotinylated where captured; also called hu-IL-36b", "T5 chain": "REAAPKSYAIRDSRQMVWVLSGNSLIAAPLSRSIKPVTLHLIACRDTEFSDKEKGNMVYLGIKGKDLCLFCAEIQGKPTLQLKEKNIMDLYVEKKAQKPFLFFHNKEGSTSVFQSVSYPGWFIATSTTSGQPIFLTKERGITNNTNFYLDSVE", "assay": "SPR (Biacore 8K), IgG captured on protein A chip, 37°C", "experimental": "(§1) FC1 was kept as a reference. Next, 3-fold serial dilutions of hu-IL-36β in HBS-P buffer from low (0.046 nM of hu-IL-36β) to high (100 nM of hu-IL-36β) were injected (flow rate: 30 μL/min) at either 37° C. The sensorgram was recorded and subject to reference and buffer subtraction before data analysis with the BIACORE® 8K Evaluation Software (GE Healthcare, Chicago, Ill., USA; version 1.1.1.7442). Association rates (kₒₙ) and dissociation rates (koff) were calculated using a simple one-to-one Langmuir binding model. The equilibrium dissociation constant (KD) was calculated as the ratio of koff/kₒₙ."}, "[8]": {"biological_target": "T5, hu-IL-36β (human IL-36β, N-terminally …)", "assay": "SPR (Biacore 8K), IgG captured on protein A chip, hu-IL-36β injected, 37°C", "experimental": "as §1"}, "[9]": {"biological_target": "T5, hu-IL-36β (human IL-36β, N-terminally …)", "assay": "cell-based or functional assay"}, "[10]": {"biological_target": "T6, cy-IL-36β (cynomolgus monkey IL-36β, W5-E157) (cynomolgus monkey)", "T6 chain": "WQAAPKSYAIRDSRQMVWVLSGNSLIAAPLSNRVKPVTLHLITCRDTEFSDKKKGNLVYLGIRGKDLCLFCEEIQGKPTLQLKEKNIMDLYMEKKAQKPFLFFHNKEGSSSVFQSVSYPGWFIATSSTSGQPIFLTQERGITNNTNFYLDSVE", "assay": "cell-based or functional assay"}, "[11]": {"biological_target": "T5, hu-IL-36β (human IL-36β, N-terminally …)", "assay": "cell-based or functional assay"}}}
{"binder": "mAb2.0 recombinant human IgG1 (antibody, V domains shown) VH: QLQLQESGPGLVKPSETLSLTCTVSGGSISTSSYYWGWIRQPPGKGLEWIGSIYYTGNTYYNPSLKSRVTISVDTSKNQFSLKLSSVTAADTAVYYCARVRYGVGVPRYFDPWGQGTLVTVSS VL: QSVLTQPPSVSGAPGQRVTISCTGSSSNIGAHYDVHWYQQLPGTAPKLLIYGNDNRPSGVPDRFSGSKSGTSASLAITGLQAEDEADYYCQSYDYSLSGYVFGGGTKLTVLG", "values": [{"measurement": "IC50, HEK-Blue assay with human IL1RL2", "setting": "[1]", "value": 0.56, "unit": "nM"}, {"measurement": "IC50, IL-36-stimulated IL-8 secretion by HaCat cells", "setting": "[2]", "value": 1.23, "unit": "nM"}, {"measurement": "IC50, IL-36-stimulated IL-8 secretion by primary human keratinocytes (HEKn)", "setting": "[2]", "value": 2.27, "unit": "nM"}, {"measurement": "blocking potency relative to the natural antagonist IL-36Ra, HaCat IL-8 assay", "setting": "[2]", "value": 12, "unit": "fold"}, {"measurement": "IC50, IL-36-stimulated IL-8 secretion by HaCat cells", "setting": "[3]", "value": 0.28, "unit": "nM"}, {"measurement": "IC50, IL-36-stimulated IL-8 secretion by primary human keratinocytes (HEKn)", "setting": "[3]", "value": 0.33, "unit": "nM"}, {"measurement": "blocking potency relative to the natural antagonist IL-36Ra, HaCat IL-8 assay", "setting": "[3]", "value": 100, "unit": "fold"}, {"measurement": "IC50, HEK-Blue assay with human IL1RL2", "setting": "[4]", "value": 1.71, "unit": "nM"}, {"measurement": "IC50, HEK-Blue IL-36R SEAP reporter assay", "setting": "[5]", "value": 7.5, "unit": "nM"}, {"measurement": "IC50, HEK-Blue IL-36R SEAP reporter assay", "setting": "[6]", "value": 5.7, "unit": "nM"}]}
{"binder": "mAb6.0_2.0 IgG (mAb6.0 HC/mAb2.0 LC chimera) (antibody, V domains shown) VH: QLQLQESGPGLVKPSETLSLTCTVSGGSITSSNYYWGWIRQPPGKGLEWIGSIDYTGSTYYNPSLKSRVTISVDTSKNQFSLKLSSVTAADTAVYYCARGKYYETYLGFDVWGQGTLVTVSS VL: QSVLTQPPSVSGAPGQRVTISCTGSSSNIGAHYDVHWYQQLPGTAPKLLIYGNDNRPSGVPDRFSGSKSGTSASLAITGLQAEDEADYYCQSYDYSLSGYVFGGGTKLTVLG", "values": [{"measurement": "fold lower affinity than mAb6.0", "setting": "[7]", "value": 16, "unit": "fold"}, {"measurement": "Kd", "setting": "[8]", "value": 6.7, "unit": "nM"}, {"measurement": "koff", "setting": "[8]", "value": 0.00214, "unit": "s⁻¹"}, {"measurement": "kon", "setting": "[8]", "value": 320000, "unit": "M⁻¹ s⁻¹"}, {"measurement": "IC50, hu-IL-36β-stimulated IL-8 secretion by HaCat cells", "setting": "[9]", "value": 12.7, "unit": "nM"}, {"measurement": "fold decrease in potency relative to mAb6.0 IgG, HaCat IL-8 assay", "setting": "[9]", "value": 16, "unit": "fold"}]}
{"binder": "mAb6.0 recombinant human IgG1 (antibody, V domains shown, Human IgG1; also called mAb6.0 IgG) VH: QLQLQESGPGLVKPSETLSLTCTVSGGSITSSNYYWGWIRQPPGKGLEWIGSIDYTGSTYYNPSLKSRVTISVDTSKNQFSLKLSSVTAADTAVYYCARGKYYETYLGFDVWGQGTLVTVSS VL: QESVLTQPPSVSGAPGQRVTISCTGSSSNIGAGYDVHWYQQLPGTAPKLLIYGNTNRPSGVPDRFSGSKSGTSASLAITGLQAEDEADYYCQSYDISLSGWVFGGGTKLTVLG", "values": [{"measurement": "Kd", "setting": "[8]", "value": 0.42, "unit": "nM"}, {"measurement": "koff", "setting": "[8]", "value": 0.000115, "unit": "s⁻¹"}, {"measurement": "kon", "setting": "[8]", "value": 362000, "unit": "M⁻¹ s⁻¹"}, {"measurement": "IC50, IL-36-stimulated IL-8 secretion by HaCat cells", "setting": "[9]", "value": 0.082, "unit": "nM"}, {"measurement": "IC50, IL-36-stimulated IL-8 secretion by primary human keratinocytes (HEKn)", "setting": "[9]", "value": 1.75, "unit": "nM"}, {"measurement": "IC50, hu-IL-36β-stimulated IL-8 secretion by HaCat cells", "setting": "[9]", "value": 0.8, "unit": "nM"}, {"measurement": "blocking potency relative to IL-36Ra, HaCat IL-8 assay", "setting": "[9]", "value": 1000, "unit": "fold"}, {"measurement": "IC50, HEK-Blue assay with human IL1RL2", "setting": "[10]", "value": 1.96, "unit": "nM"}, {"measurement": "IC50, HEK-Blue IL-36R SEAP reporter assay", "setting": "[11]", "value": 0.64, "unit": "nM"}]}
